Measurements: US20240269235A1 (Gilead, published 2024)
Read-outs that look alike come from different tables or passages of the source.

Experiments:
[1] = biological target: T1, trimeric murine IL-2 receptor (IL-2Rα, IL-2Rβ, and IL-2Rγ) on CTLL-2 cells (murine, UniProt P01590 22-268; P16297 27-539; P34902 23-369); assay: cell-based or functional assay
T1 sequence (looked up) 1: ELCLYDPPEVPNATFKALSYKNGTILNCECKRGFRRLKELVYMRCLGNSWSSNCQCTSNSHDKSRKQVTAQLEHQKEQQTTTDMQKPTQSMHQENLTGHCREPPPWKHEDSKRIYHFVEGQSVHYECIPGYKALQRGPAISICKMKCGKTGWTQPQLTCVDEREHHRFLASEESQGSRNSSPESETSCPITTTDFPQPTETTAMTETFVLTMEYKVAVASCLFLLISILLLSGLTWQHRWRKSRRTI
T1 sequence (looked up) 2: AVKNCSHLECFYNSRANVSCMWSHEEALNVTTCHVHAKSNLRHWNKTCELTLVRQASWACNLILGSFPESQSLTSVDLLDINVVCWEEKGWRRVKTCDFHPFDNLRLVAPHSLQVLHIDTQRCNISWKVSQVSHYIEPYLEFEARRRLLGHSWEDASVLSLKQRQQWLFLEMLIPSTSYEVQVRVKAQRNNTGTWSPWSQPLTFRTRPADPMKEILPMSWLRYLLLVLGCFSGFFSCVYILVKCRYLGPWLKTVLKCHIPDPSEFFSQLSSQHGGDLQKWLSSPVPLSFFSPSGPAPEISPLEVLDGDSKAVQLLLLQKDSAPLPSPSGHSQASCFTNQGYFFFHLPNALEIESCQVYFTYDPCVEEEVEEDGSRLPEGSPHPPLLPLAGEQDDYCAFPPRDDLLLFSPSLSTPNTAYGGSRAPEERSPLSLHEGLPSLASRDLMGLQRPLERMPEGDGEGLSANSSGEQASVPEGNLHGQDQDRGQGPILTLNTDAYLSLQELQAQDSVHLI
T1 sequence (looked up) 3: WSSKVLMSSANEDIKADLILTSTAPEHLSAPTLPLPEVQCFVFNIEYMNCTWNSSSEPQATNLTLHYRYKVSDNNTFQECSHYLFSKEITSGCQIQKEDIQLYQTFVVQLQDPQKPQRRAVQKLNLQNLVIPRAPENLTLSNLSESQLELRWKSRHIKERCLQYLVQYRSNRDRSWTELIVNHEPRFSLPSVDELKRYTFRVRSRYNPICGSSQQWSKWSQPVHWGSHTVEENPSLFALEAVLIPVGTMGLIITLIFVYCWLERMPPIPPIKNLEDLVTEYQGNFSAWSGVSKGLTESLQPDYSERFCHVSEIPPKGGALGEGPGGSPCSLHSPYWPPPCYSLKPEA

[2] = biological target: T1, trimeric murine IL-2 receptor (IL-2Rα, …); assay: cell-based or functional assay; remark: listed apart in the source
[3] = biological target: T2, IL-2Rβ (recombinant IL-2 receptor β, R&D Systems Cat #:224-2B-025/CF), biotinylated (UniProt P14784 27-239, limits assumed, biotinylated using sulfo-NHS-LC-LC-Biotin); assay: SPR (Biacore), C1 or CM5 chip, biotinylated receptor on neutravidin
T2 construct: Bought reagent; also called IL-2RB; CD122
T2 sequence (looked up): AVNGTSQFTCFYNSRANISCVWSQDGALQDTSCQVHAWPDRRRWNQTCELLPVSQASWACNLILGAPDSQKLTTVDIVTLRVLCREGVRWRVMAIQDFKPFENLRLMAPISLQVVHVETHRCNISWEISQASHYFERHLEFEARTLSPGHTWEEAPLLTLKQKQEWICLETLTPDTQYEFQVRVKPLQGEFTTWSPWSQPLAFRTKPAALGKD

[4] = biological target: T3, IL-2Rα (recombinant IL-2 receptor α, R&D Systems Cat #: 223-2A/CF), biotinylated (human, UniProt P01589 22-213, limits assumed, biotinylated using sulfo-NHS-LC-LC-Biotin); assay: as above
T3 construct: Bought reagent; also used here as the IL-2Rα partner of the in-silico analysis of PDB 2B5I (another construct); also called IL-2RA; CD25
T3 sequence (looked up): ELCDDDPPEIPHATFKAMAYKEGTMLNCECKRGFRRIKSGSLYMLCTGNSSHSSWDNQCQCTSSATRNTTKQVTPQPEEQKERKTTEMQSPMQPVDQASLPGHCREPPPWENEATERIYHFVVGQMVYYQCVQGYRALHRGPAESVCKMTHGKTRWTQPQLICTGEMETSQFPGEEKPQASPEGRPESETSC

[5] = biological target: T4, IL-2Rβγ heterodimer, custom biotinylated Fc fusion protein (human IL-2Rβ 27-240-Fc-FLAG / human IL-2Rγ … (human, site-specific biotinylation at the AviTag)); assay: as above
T4 construct: Extracellular regions fused to IgG1 knob-in-hole Fc subunits with tags; also called IL-2 receptor βγ heterodimer; Fc-IL-2Rβγ
T4 sequence (chain, as listed by the source limits assumed): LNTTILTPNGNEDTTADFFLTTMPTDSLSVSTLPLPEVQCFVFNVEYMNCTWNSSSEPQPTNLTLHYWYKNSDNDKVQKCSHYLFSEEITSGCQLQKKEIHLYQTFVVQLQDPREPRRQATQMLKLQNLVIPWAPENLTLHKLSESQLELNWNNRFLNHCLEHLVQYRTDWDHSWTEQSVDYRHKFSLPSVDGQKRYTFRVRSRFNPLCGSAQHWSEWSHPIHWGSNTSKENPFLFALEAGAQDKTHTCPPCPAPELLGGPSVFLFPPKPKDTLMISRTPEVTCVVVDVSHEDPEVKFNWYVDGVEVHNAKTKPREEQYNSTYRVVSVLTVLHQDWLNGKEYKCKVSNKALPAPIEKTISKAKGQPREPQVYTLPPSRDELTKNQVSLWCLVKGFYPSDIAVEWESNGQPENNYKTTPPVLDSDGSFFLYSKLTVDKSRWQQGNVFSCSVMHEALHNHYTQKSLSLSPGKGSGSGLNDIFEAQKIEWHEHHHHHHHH

STAT5 activation of CTLL-2 cells, EC50 [1]: 0.003 nM
STAT5 activation of CTLL-2 cells, EC50 [2]: 0.002 nM
Kd [3]: 7000 nM
Kd [4]: 15 nM
Kd [5]: 0.142 nM
B1: Fc-IL-2 heterodimer 117.46 (hIL-2v_Δ1-5_C125S), native IL-2Rα binding interface (Fc fusion)
chain 1: ESKYGPPCPPCPAPEAAGGPSVFLFPPKPKDTLMISRTPEVTCVVVDVSQEDPEVQFNWYVDGVEVHNAKTKPREEQFNSTYRVVSVLTVLHQDWLNGKEYKCKVSNKGLPSSIEKTISKAKGQPREPQVYTLPPSQEEMTKNQVSLWCLVKGFYPSDIAVEWESNGQPENNYKTTPPVLDSDGSFFLYSRLTVDKSRWQEGNVFSCSVMHEALHNHYTQKSLSLSLGGGGGSGGGGSGGGGSGGGGSSTKKTQLQLEHLLLDLQMILNGINNYKNPKLTRMLTFKFYMPKKATELKHLQCLEEELKPLEEVLNLAQSKNFHLRPRDLISNINVIVLELKGSETTFMCEYADETATIVEFLNRWITFSQSIISTLT
chain 2: ESKYGPPCPPCPAPEAAGGPSVFLFPPKPKDTLMISRTPEVTCVVVDVSQEDPEVQFNWYVDGVEVHNAKTKPREEQFNSTYRVVSVLTVLHQDWLNGKEYKCKVSNKGLPSSIEKTISKAKGQPREPQVYTLPPSQEEMTKNQVSLSCAVKGFYPSDIAVEWESNGQPENNYKTTPPVLDSDGSFFLVSRLTVDKSRWQEGNVFSCSVMHEALHNRFTQKSLSLSLGK
notes: hIgG4 knob-in-hole Fc heterodimer
